Experimental data as given in the supplement of paper PMC9233669.
Variants at the floor of the assay were thinned out.

Columns and labels:
biotinyl-Ile-oxazolone = experiment: self-aminoacylation, catalytic enhancement (BIO) (fold over background); higher = more active; k-Seq, kA / k0A0; sequences stand for … in GGGAAUGGAUCCACAUCUACGAAUUC…UUCACUGCAGACUUGACGAAGCUG
Method in brief: (§1)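 The uncatalyzed rate is the low-activity peak of a bimodal Gaussian fit, and catalytic enhancement is median kA divided by it. The kA values came from pseudo-first-order fits, with 1000 bootstraps, of per-sequence fraction reacted measured by streptavidin capture, triplicate qPCR and Illumina sequencing. Mutagenized RNA pools with a 21-nt variable region (0.43 μM) were reacted with each biotinyl-aminoacyl-oxazolone at 2–1250 μM in 50 μL HEPES/NaCl/KCl/MgCl2/CaCl2 buffer with 5% acetonitrile, pH 6.9–7.0, for 90 minutes at room temperature.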

biotinyl-Val-oxazolone = experiment: self-aminoacylation, catalytic enhancement (BVO) (fold over background); higher = more active; k-Seq, kA / k0A0; sequences stand for … in GGGAAUGGAUCCACAUCUACGAAUUC…UUCACUGCAGACUUGACGAAGCUG
Method in brief: as §1

biotinyl-Leu-oxazolone = experiment: self-aminoacylation, catalytic enhancement (BLO) (fold over background); higher = more active; k-Seq, kA / k0A0; sequences stand for … in GGGAAUGGAUCCACAUCUACGAAUUC…UUCACUGCAGACUUGACGAAGCUG
Method in brief: as §1

biotinyl-Phe-oxazolone = experiment: self-aminoacylation, catalytic enhancement (BFO) (fold over background); higher = more active; k-Seq, kA / k0A0; sequences stand for … in GGGAAUGGAUCCACAUCUACGAAUUC…UUCACUGCAGACUUGACGAAGCUG
Method in brief: as §1

biotinyl-Trp-oxazolone = experiment: self-aminoacylation, catalytic enhancement (BWO) (fold over background); higher = more active; k-Seq, kA / k0A0; sequences stand for … in GGGAAUGGAUCCACAUCUACGAAUUC…UUCACUGCAGACUUGACGAAGCUG
Method in brief: as §1

biotinyl-Met-oxazolone = experiment: self-aminoacylation, catalytic enhancement (BMO) (fold over background); higher = more active; k-Seq, kA / k0A0; sequences stand for … in GGGAAUGGAUCCACAUCUACGAAUUC…UUCACUGCAGACUUGACGAAGCUG
Method in brief: as §1

Sequence	self-aminoacylation (biotinyl-Ile-oxazolone)	self-aminoacylation (biotinyl-Val-oxazolone)	self-aminoacylation (biotinyl-Leu-oxazolone)	self-aminoacylation (biotinyl-Phe-oxazolone)	self-aminoacylation (biotinyl-Trp-oxazolone)	self-aminoacylation (biotinyl-Met-oxazolone)
CCACUUCAAACAAUCGGGCUG [Fam1A.1 aminoacylation ribozyme variant]	2.12	3.05	2.63	27.3	27.2	2.13
CCACUUCAAACAAUCGGUCAG [Fam1A.1 aminoacylation ribozyme variant]	1.01	1.04	1.03	13.7	9.79	0.992
CCACUUCAAACAAUCGGUCUA [Fam1A.1 aminoacylation ribozyme variant]	1.19	0.99	1.5	28.5	17.4	0.991
CCACUUCAAACAAUCGGUUUG [Fam1A.1 aminoacylation ribozyme variant]	1.39	1.83	2.57	80.3	39.5	1.37
CCACUUCAAACUAUCGGUCUG [Fam1A.1 aminoacylation ribozyme variant]	1.44	1.46	1.16	0.866	1.39	1.39
CCACUUCCAACAAUCGGUCUG [Fam1A.1 aminoacylation ribozyme variant]	0.991	1.11	1.15	1.13	1.6	1.11
CCACUUUUCAAGCAAUCGGUC [Fam1B.1 aminoacylation ribozyme variant]	1.25	1.32	1.1	1.58	1.06	1.1
CCAGACUUCAACCAAUCGGUC [Fam1B.1 aminoacylation ribozyme variant]	1.39	1.72	2.1	51.2	31.4	1.63
CCAGACUUCAAGCAAUCAGUC [Fam1B.1 aminoacylation ribozyme variant]	1.04	0.837	1.03	12.6	5.08	0.826
CCAGACUUCAAGCAAUCGAUC [Fam1B.1 aminoacylation ribozyme variant]	0.714	0.778	0.614	1.51	0.639	0.559
CCAGACUUCAAGCGAUCGGUC [Fam1B.1 aminoacylation ribozyme variant]	1.36	1.8	1.83	1.63	1.82	1.17
CCAGACUUCAGGCAAUCGGUC [Fam1B.1 aminoacylation ribozyme variant]	1.45	1.64	1.57	1.79	1.83	1.36
CCAGAUUUCAAGCAAUCGGUC [Fam1B.1 aminoacylation ribozyme variant]	1.5	1.4	1.38	3.36	2.91	1.48
CCAUACAUCAAGCAAUCGGUC [Fam1B.1 aminoacylation ribozyme variant]	1.04	0.981	0.841	1.06	0.687	0.792
CCAUACUUCAAGCAAUCCGUC [Fam1B.1 aminoacylation ribozyme variant]	1.15	1.12	0.949	0.96	0.766	0.829
CCAUACUUCAAGCGAUCGGUC [Fam1B.1 aminoacylation ribozyme variant]	1.15	1.25	0.976	1.17	0.926	1.02
CCCCACUUCAAGCAAUCCGUC [Fam1B.1 aminoacylation ribozyme variant]	1.62	1.6	1.02	3.48	2.64	1
CCCCACUUCAAGCAAUCGGGC [Fam1B.1 aminoacylation ribozyme variant]	2.37	2.92	2.43	4.2	5.69	3.15
CCCCACUUCAAGCAAUCGGUC [Fam1B.1 aminoacylation ribozyme variant]	1.54	1.83	1.97	57.5	31.5	1.48
CCCCUUCAAACAAUCGGUCUG [Fam1A.1 aminoacylation ribozyme variant]	1.79	2.44	3.29	185	72.5	2.05
CCGCACUGCAAGCAAUCGGUC [Fam1B.1 aminoacylation ribozyme variant]	1.52	1.81	1.17	1	1.42	1.21
CCGCACUUCAAGCACUCGGUC [Fam1B.1 aminoacylation ribozyme variant]	1.38	1.79	1.64	1.93	1.55	1.44
CCGCACUUCAAGCAUUCGGUC [Fam1B.1 aminoacylation ribozyme variant]	2.17	2.28	1.62	1.88	1.76	1.85
